In PMC6076860 (Analytical biochemistry, 2018):

Target: the molecule itself
Assay: SEC

B1: PCD αβ dimer (protomer of the protocatechuate 3,4-dioxygenase holoenzyme complex) from Pseudomonas putida (complex)
chain 1: MPIELLPETPSQTAGPYVHIGLALEAAGNPTRDQEIWNRLAKPDAPGEHILLLGQVYDGNGHLVRDSFLEVWQADANGEYQDAYNLENAFNSFGRTATTFDAGEWTLHTVKPGVVNNAAGVPMAPHINISLFARGINIHLHTRLYFDDEAQANAKCPVLNLIEQPQRRETLIAKRCEVDGKTAYRFDIRIQGEGETVFFDF
chain 2: MPAQDNSRFVIRDRNWHPKALTPDYKTSIARSPRQALVSIPQSISETTGPNFSHLGFGAHDHDLLLNFNNGGLPIGERIIVAGRVVDQYGKPVPNTLVEMWQANAGGRYRHKNDRYLAPLDPNFGGVGRCLTDSDGYYSFRTIKPGPYPWRNGPNDWRPAHIHFGISGPSIATKLITQLYFEGDPLIPMCPIVKSIANPEAVQQLIAKLDMNNANPMDCLAYRFDIVLRGQRKTHFENC
- binding result: binds
